These are literature values, as cited in paper PMC4651712.

The data set has as its target PTHR1 (Homo sapiens) (UniProt Q03431).
Sequence of UniProt Q03431 (Q03431 27-593): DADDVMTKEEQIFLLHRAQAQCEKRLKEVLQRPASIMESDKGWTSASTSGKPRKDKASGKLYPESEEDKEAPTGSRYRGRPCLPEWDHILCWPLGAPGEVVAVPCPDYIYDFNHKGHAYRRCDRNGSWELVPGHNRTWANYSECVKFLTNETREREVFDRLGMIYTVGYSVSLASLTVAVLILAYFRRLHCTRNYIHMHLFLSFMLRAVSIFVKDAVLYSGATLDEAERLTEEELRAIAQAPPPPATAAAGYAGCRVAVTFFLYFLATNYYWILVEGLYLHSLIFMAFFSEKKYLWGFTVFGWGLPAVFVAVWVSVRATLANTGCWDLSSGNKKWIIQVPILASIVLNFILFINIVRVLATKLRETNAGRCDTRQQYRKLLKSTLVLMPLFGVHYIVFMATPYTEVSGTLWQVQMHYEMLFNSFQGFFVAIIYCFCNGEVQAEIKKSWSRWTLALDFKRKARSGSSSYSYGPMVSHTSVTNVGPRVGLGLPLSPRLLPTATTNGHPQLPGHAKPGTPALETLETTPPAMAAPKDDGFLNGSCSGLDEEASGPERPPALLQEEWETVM

A word on the Kd: it is a measure of binding affinity in units of concentration. Consider PTH (from UniProt P01270), for which the Kd is 1 nM.
